B1: FasR from Mycobacterium tuberculosis, full-length (hexa-histidine-TEV-tagged construct, tag cleaved) (natural protein)
chain: MSDLAKTAQRRALRSSGSARPDEDVPAPNRRGNRLPRDERRGQLLVVASDVFVDRGYHAAGMDEIADRAGVSKPVLYQHFSSKLELYLAVLHRHVENLVSGVHQALSTTTDNRQRLHVAVQAFFDFIEHDSQGYRLIFENDFVTEPEVAAQVRVATESCIDAVFALISADSGLDPHRARMIAVGLVGMSVDCARYWLDADKPISKSDAVEGTVQFAWGGLSHVPLTRS
B2: His-tagged FasR (FasRwt, from pET28_fasRH) (natural protein)
chain: B1 chain
notes: not shown: His6, N-terminal, kept

Target: the molecule itself
Assay: SEC

| Protein | stoichiometry N |
| --- | --- |
| B1 | 2 |
| B2 | 2 |

Source: article PMC7382501 (Nature Communications, 2020)
